Results: patent US20250302982A1 (Genmab, published 2025)

Experiments:
[1] = biological target: T1, Tissue Factor (TF) (human, UniProt P13726 33-295); test: cell-based or functional assay
[2] = biological target: T1, Tissue Factor (TF); test: flow cytometry on HNSCC cell lines, 2 µg/ml tisotumab, PE-conjugated goat (Fab')2 anti-human IgG secondary

B1: tisotumab vedotin (antibody, IgG1, V domains shown)
VH: EVQLLESGGGLVQPGGSLRLSCAASGFTFSNYAMSWVRQAPGKGLEWVSSISGSGDYTYYTDSVKGRFTISRDNSKNTLYLQMNSLRAEDTAVYYCARSPWGYYLDSWGQGTLVTVSS
VL: DIQMTQSPPSLSASAGDRVTITCRASQGISSRLAWYQQKPEKAPKSLIYAASSLQSGVPSRFSGSGSGTDFTLTISSLQPEDFATYYCQQYNSYPYTFGQGTKLEIK
modifications: MC-vc-PAB-MMAE (vcMMAE) attached to sulphydryl residues of the antibody; positions not given
B1 was tested, and the “IC50 of cell killing (percent viable cells, Cell Titer-Blue, day 5); HNSCC cell lines with intermediate and high TF expression” value [1] was 2.5 to 7 ng/mL and the “IC50 of cell killing (percent viable cells, Cell Titer-Blue, day 5); primary keratinocytes and VU-SCC-OE (low TF expression)” value [1] was over 25 ng/mL.

B2: tisotumab (antibody, IgG1, V domains shown)
VH: EVQLLESGGGLVQPGGSLRLSCAASGFTFSNYAMSWVRQAPGKGLEWVSSISGSGDYTYYTDSVKGRFTISRDNSKNTLYLQMNSLRAEDTAVYYCARSPWGYYLDSWGQGTLVTVSS
VL: DIQMTQSPPSLSASAGDRVTITCRASQGISSRLAWYQQKPEKAPKSLIYAASSLQSGVPSRFSGSGSGTDFTLTISSLQPEDFATYYCQQYNSYPYTFGQGTKLEIK
notes: Tested as IgG1 (IgG1-1015-011, Genmab); also called antibody 011; IgG1-1015-011
B2: binds [2].
